The values below come from US20200239573A1 (CRESCENDO BIOLOGICS, published 2020).

For assay [1], the target named is T1, Strep tagged recombinant human PD-1 (human, UniProt Q15116 25-170, limits assumed).
T1 construct: the whole entry is named; also called strep tagged human PD-1; not shown: Strep tag
As to the kind of experiment: SPR Biacore T200, strep-tagged PD-1 amine-coupled, single cycle kinetics.

The target of assay [2] is human PD-1 on primary human CD4+ T cells (human, UniProt Q15116 21-288). Description: flow cytometry on PHA-stimulated human CD4+ T cells (live cell gate). As to the method:
Binding of monovalent single domain antibodies and multivalent binding agents to T cells was measured using flow cytometry. […] T-cells were stimulated with 2.5 μg/ml PHA for 2-4 days in RPMI media supplemented with 10% FBS, 2 mM Glutamine, 1× Pen/Strep. Cells were transferred into 96 well plates (75000 per well), blocked for 10 mins with PBS/1% BSA, then incubated with serially diluted VH in staining buffer (PBS/1% BSA) for 1 hour at 4° C. Cells were washed with staining buffer by centrifugation then incubated with 10 μg/ml biotinylated Anti His antibody for 40 mins at 4° C. Cells were washed again then stained with Streptavidin Alexa Fluor-488 (10 μg/ml) and 1:5000 diluted Live Dead near IR stain (Molecular Probes cat no. L10119) for 30 mins at 4° C. After further washing cells were fixed and fluorescence measured by flow cytometry.
For orientation: A flow cytometer gives signals particle by particle.

The target in assay [3] is T2, human PD-1 expressed on cells (CHO human PD-1 cells) (human, UniProt Q15116 21-288). Description: cell-based or functional assay.
T2 sequence (Q15116 21-288): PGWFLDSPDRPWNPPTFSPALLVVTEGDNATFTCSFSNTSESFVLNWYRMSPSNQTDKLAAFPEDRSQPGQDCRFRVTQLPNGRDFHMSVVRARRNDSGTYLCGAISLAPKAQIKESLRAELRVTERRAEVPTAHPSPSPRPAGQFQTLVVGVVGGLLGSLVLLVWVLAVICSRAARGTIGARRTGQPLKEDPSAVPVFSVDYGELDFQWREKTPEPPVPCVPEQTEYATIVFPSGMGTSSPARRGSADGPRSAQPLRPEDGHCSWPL
The target of assay [4] is T2, human PD-1 expressed on cells (CHO …). As to the kind of experiment: cell-based or functional assay. This is another data set of the same source.
Assay [5] has as its target T3, recombinant human PD-1 Fc chimera (human, UniProt Q15116 25-167).
T3 construct: Bought protein; also called human PD-1-huFc; huPD-1-Fc; not shown: human Fc
Description: SPR Biacore T200, PD-1-Fc captured on protein G, single cycle kinetics. As to the method: Single cycle kinetics assays were used to study the interaction between human Fc tagged human PD-1 with Humabody® on a Biacore T200 instrument (GE Healthcare). Protein G was amine coupled to two flow cells of a CM-5 chip. Human Fc tagged recombinant human PD-1 was captured onto one of the flow cells. The other was used as the reference flow cell. A five point, three-fold dilution series of each Humabody® was made with a top concentration within the range of 50 to 150 nM. The binding kinetics were followed by flowing the Humabody® over the chip surface in HBS EP+ buffer at a flow rate of 30 μl/min. The contact time for each of the association steps was 180 seconds and the dissociation step was 3600 seconds. The data was fitted to a 1:1 binding model after double reference subtraction using the Biacore T200 Evaluation software.

The target in assay [6] is T3, recombinant human PD-1 Fc chimera. As to the kind of experiment: SPR Biacore T200, PD-1-huFc amine-coupled, single cycle kinetics. As to the method:
Binding kinetics of certain VH single domain antibodies binding to human PD-1-huFc were measured by surface plasmon resonance (SPR) technology using Biacore T200 instrument (GE Healthcare). Recombinant human PD-1-huFc was immobilized by standard amine coupling to CM5 sensorschip (GE Healthcare) using in range of 0.1-0.01 mg/ml solution of antigen in 10 mM sodium acetate at pH 5.5. For the reference flow cell, a blank immobilisation was carried out. Single cycle kinetics assays were used to study the interaction, a five point, three-fold dilution series of each Humabody® was made with a top concentration of 30 nM. The binding kinetics were followed by flowing the Humabody® over the chip surface in HBS EP+ buffer at a flow rate of 30 μl/min. The contact time for each of the association steps was 180 seconds and the dissociation step was varied between 1200-3600 seconds. The data was fitted to a 1:1 binding model after double reference subtraction using the Biacore T200 Evaluation software.
Background: Surface plasmon resonance follows binding to a sensor surface in real time, without labels.

Assay [7] has the same target. Description: HTRF binding, 2 nM PD-1, anti-Fc cryptate and anti-His-D2. As to the method: (§1) e) Species Cross Reactivity Testing Purified […] were tested for their ability to bind to human PD-1 (R&D Systems cat no. 1086-PD), cynomolgus PD-1 (Acro Biosystems cat no. PD-1-05254) and mouse PD-1 (R&D Systems cat no. 1021-PD) in an HTRF Binding assay format. All reagents and serially diluted VH were prepared in assay buffer containing PBS, 0.1% BSA and 0.4M Potassium Fluoride. Samples or assay buffer (non-specific binding) were incubated with 2 nM human/cynomolgus or mouse PD-1, 1 nM Anti human-Fc Cryptate PAb (Cisbio cat. no. 61HFCKLB) and 30 nM anti His-D2 (CisBio cat no 61HISDLA) in black 384-shallow well assay plates for a minimum of 3 hours at room temperature. Time-resolved fluorescent emission at 620 nm and 665 nm was measured following excitation at 337 nm on the BMG PHERAstar plate reader. The HTRF ratio were calculated ((665 nm emission/620 nm emission)*10000) and the data corrected for (non-specific binding) to give the specific binding signal.
(In general: TR-FRET usually uses a lanthanide donor and a delayed reading to cut background.)

Assay [8] concerns the target T4, cynomolgus PD-1 recombinant protein (cynomolgus, UniProt B0LAJ3 25-170).
T4 construct: Detected with anti human-Fc cryptate, so probably Fc tagged; also called cyno PD-1; cynomolgus PD-1 (Acro Biosystems cat no. PD-1-05254); not shown: The vendor's carrier tag; It is probably a human Fc, since detection used anti human-Fc cryptate
The assay is described as above. As to the method:
as §1

Assay [9] has as its target T3, recombinant human PD-1 Fc chimera. Description: HTRF inhibition; biotinylated PD-L2-Fc vs Eu-cryptate PD-1-Fc.
The target is the same in assay [10]. As to the kind of experiment: HTRF inhibition; strep-tagged PD-L1 vs PD-1-Fc. As to the method: All samples and reagents were prepared in HTRF assay buffer containing PBS, 0.1% (w/v) BSA and 0.4M Potassium Fluoride. […] Total binding controls containing periplasmic extract sample buffer and non-specific binding controls containing excess untagged competitor were set up on each plate for data normalisation. Time-resolved fluorescent emission at 620 nm and 665 nm was measured following excitation at 337 nm on the BMG PHERAstar plate reader. Data was expressed as a % of the total binding control (% control) after subtraction of the background signal determined from the non-specific binding control wells.

For the next assay, the target named is T5, mouse PD-1 protein (mouse, UniProt Q02242 25-167).
T5 construct: Detected with anti human-Fc cryptate, so probably Fc tagged; also called mouse PD-1 (R&D Systems cat no. 1021-PD)
T5 sequence (looked up): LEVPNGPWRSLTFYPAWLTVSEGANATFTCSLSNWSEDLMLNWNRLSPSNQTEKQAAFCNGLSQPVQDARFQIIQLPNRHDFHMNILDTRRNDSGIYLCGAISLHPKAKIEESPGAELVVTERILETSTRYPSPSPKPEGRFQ
As to the kind of experiment: HTRF binding, 2 nM mouse PD-1. As to the method:
as §1

For assay [11], the target named is T2, human PD-1 expressed on cells (CHO …). Description: FMAT inhibition assay on CHO human PD-1 cells; blocked ligand: human Fc tagged human PD-L1. As to the method: (§2) All reagents and serially diluted VH were prepared in FMAT assay buffer. […] Plates were incubated for 2 hours at room temperature then fluorescence measured in the FL2 (502 nm-537 nm) and FL5 (677-800 nm) channels on the Mirrorball plate reader (TTP) following excitation at 488 nm and 640 nm. Data was expressed as a % of the total binding control (i.e. % control) after subtraction of the background signal determined from the non-specific binding control wells.

Assay [12] has the same target. As to the kind of experiment: FMAT inhibition; 100 pM PD-L1-Fc on CHO human PD-1 cells. As to the method: as §2
For assay [13] the target is unchanged. Description: FMAT 1.57 epitope competition assay on CHO human PD-1 cells; competitor: 1.57-Strep tagged protein; 1 day in mouse serum. As to the method:
(§3) For the epitope competition assay reagents were prepared in FMAT assay buffer. […] Plates were incubated for a minimum of 1.5 hours at room temperature then fluorescence measured in the FL2 (502 nm-537 nm) and FL5 (677-800 nm) channels on the Mirrorball plate reader (TTP) following excitation at 488 nm and 640 nm. Data was expressed as a % of the total binding control (i.e. % control) after subtraction of the background signal determined from the non-specific binding control wells.
(§4) Serum stability of VH and multivalent VH constructs was assessed by measurement of their activity following incubation for 0, 1, 4 or 7 days in mouse serum (Sigma M5905).

Assay [14] shares this target. As to the kind of experiment: FMAT inhibition; 200 pM PD-L2 on CHO human PD-1 cells. As to the method:
as §2

The target is the same in assay [15]. Description: cell-based or functional assay. This is another data set of the same source.
The target is the same in assay [16]. As to the kind of experiment: FMAT 1.57 epitope competition assay on CHO human PD-1 cells; competitor: 1.57-Strep tagged protein; 0 days in mouse serum. As to the method:
as §3, §4

Assay [17] addresses human PD-1 expressed on cells (CHO human PD-1 cells) (human) (UniProt Q15116). As to the kind of experiment: FMAT inhibition assay on CHO human PD-1 cells; blocked ligand: human Fc tagged human PD-L1.

Positions count from the first letter of the chain named.

T1 sequence (Q15116 25-170 limits assumed): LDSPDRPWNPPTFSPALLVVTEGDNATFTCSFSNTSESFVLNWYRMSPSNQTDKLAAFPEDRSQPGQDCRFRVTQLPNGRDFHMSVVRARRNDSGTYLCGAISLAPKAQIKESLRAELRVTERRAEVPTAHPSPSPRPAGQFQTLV
T3 sequence (Q15116 25-167 limits assumed, change not shown): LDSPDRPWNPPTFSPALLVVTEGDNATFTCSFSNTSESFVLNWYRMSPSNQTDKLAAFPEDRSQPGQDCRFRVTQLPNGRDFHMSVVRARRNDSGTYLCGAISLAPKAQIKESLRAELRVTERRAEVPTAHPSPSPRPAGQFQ
T4 sequence (B0LAJ3 entry or part of it limits assumed): as the sequence (Q15116 25-170 limits assumed) above, with D2E, P10A, V19L, T35A, Q75R, T144A counted along it
Chain of human PD-1 on primary human CD4+ T cells (Q15116 21-288): as the sequence (Q15116 21-288) above
Chain of human PD-1 expressed on cells (CHO human PD-1 cells) (human) (Q15116 21-288): as above

B1: 1.57-6GS-1.57 (other)
chain: QVQLVESGGGLVKPGGSLRLSCAASGFTFSDNSMTWMRQAPGKGLEWVSYISSGGGVIFYADSVKGRFTISRDNAKNSLYLQMNSLRADDTAVYYCAREAPLRLGESPHDAFDISGQGTMVTVSSGGGGSGGGGSGGGGSGGGGSGGGGSGGGGSQVQLVESGGGLVKPGGSLRLSCAASGFTFSDNSMTWMRQAPGKGLEWVSYISSGGGVIFYADSVKGRFTISRDNAKNSLYLQMNSLRADDTAVYYCAREAPLRLGESPHDAFDISGQGTMVTVSS
notes: bivalent construct of two VH domains in one chain
By Kd is commonly meant the free concentration of one partner at which half of the binding sites on the other are occupied at equilibrium, for simple one-to-one binding. As a reminder, the koff is a measure of how fast the partners let go of each other. For orientation: kon means the second-order rate constant of association. Broadly, the EC50 (read off the curve) is the concentration needed to bring the measured effect to its halfway point. As for B1, in assay [1], the dissociation constant Kd amounted to 0.0171 nM, the koff came to 1.32e-05 s⁻¹ and the association rate constant (kon) came to 773000 M⁻¹ s⁻¹. Also, the “EC50 (read off the curve)” value in assay [2] was roughly 0.2 nM. Moreover, the “EC50 (M), human PD-1 reporter gene assay” value in [3] came out at 8.4e-10 M. Besides, the “EC50 (M), reporter assay” value in [4] worked out at 8.4e-10 M.

B2: 1.57-9GS-1.57 (other)
chain: QVQLVESGGGLVKPGGSLRLSCAASGFTFSDNSMTWMRQAPGKGLEWVSYISSGGGVIFYADSVKGRFTISRDNAKNSLYLQMNSLRADDTAVYYCAREAPLRLGESPHDAFDISGQGTMVTVSSGGGGSGGGGSGGGGSGGGGSGGGGSGGGGSGGGGSGGGGSGGGGSQVQLVESGGGLVKPGGSLRLSCAASGFTFSDNSMTWMRQAPGKGLEWVSYISSGGGVIFYADSVKGRFTISRDNAKNSLYLQMNSLRADDTAVYYCAREAPLRLGESPHDAFDISGQGTMVTVSS
notes: as for B1
For the molecule B2, in assay [1], the dissociation constant Kd amounted to 0.0222 nM, the koff turned out to be 1.4e-05 s⁻¹ and the kon came to 630000 M⁻¹ s⁻¹. The “EC50 (M), human PD-1 reporter gene assay” value in [3] turned out to be 1e-09 M. For the same molecule, the “EC50 (M), reporter assay” value in assay [4] stood at 1e-09 M. In assay [5], the “dissociation rate constant (koff)” value stood at 8.4e-05 s⁻¹, the koff turned out to be 1.14e-07 s⁻¹ and the kon was found to be 1.36e+06 M⁻¹ s⁻¹.

B3: Humabody® 1.1 (VHH)
VHH: QVQLVESGGGLVKPGGSLRLSCAASGFTFSDYTMTWMRQAPGKGLEWVSYISTGGTIKYYTDSVKGRFTISRDNAKNSLYLQMNSLRADDTAVYYCAREAPLRLGESPHDAFDIWGQGTMVTVSS
notes: human VH single domain antibody; also called VH single domain antibody 1.1; clone 1.1
Usually EC50 stands for the midpoint of the concentration-response curve. By IC50 is commonly meant the point on the concentration scale where inhibition reaches its midpoint. Take B3: in assay [6], the Kd was found to be 0.676 nM, the koff was 7.35e-05 s⁻¹ and the on-rate constant (kon) amounted to 109000 M⁻¹ s⁻¹. The EC50 in assay [7] was determined as 4 nM. Further, the concentration for a half-maximal effect (EC50) in [8] worked out at 6.3 nM. In assay [9], the IC50 was 4.9 nM. Also, in assay [10], the IC50 came to 1.27 nM. In addition, in the assay with mouse PD-1 protein, the binding result was “no binding”. Further, the “IC50 (read off the curve)” value in assay [11] was roughly 20 nM.

B4: Humabody® 1.64 (VHH)
VHH: B3 VHH with Q1E, Y32S, T33S, T53S, T56G, I57V, Y59F, T61A, W115S
notes: human VH single domain antibody
B4: the concentration for half-maximal inhibition (IC50) was 5.8 nM in assay [12] and 9 nM in assay [14]. Besides, the “IC50 (read off the curve)” value is roughly 0.8 nM in assay [13] and roughly 0.9 nM in assay [16]. In addition, the “Reporter Assay EC50” value in [15] was 25 nM.

B5: 1.57-1.57 (protein, part only; not given: Linker of unstated length, part only)
VH-linker-VH, part: QVQLVESGGGLVKPGGSLRLSCAASGFTFSDNSMTWMRQAPGKGLEWVSYISSGGGVIFYADSVKGRFTISRDNAKNSLYLQMNSLRADDTAVYYCAREAPLRLGESPHDAFDISGQGTMVTVSSQVQLVESGGGLVKPGGSLRLSCAASGFTFSDNSMTWMRQAPGKGLEWVSYISSGGGVIFYADSVKGRFTISRDNAKNSLYLQMNSLRADDTAVYYCAREAPLRLGESPHDAFDISGQGTMVTVSS
For the molecule B5, in [17], the IC50 (read off the curve) amounted to 0.9 nM.
